# Test results published in article PMC7121760.
# Assays:
# [1] = target: α1Cx43 (connexin 43), full-length, membrane-integrated (UniProt P08050); assay: sucrose gradient velocity sedimentation
# [2] = target: β1Cx32 (connexin 32), full-length, membrane-integrated (UniProt P08033); assay: sucrose gradient velocity sedimentation
Substance,stoichiometry N [1],stoichiometry N [2]
"α1Cx43 (connexin 43), full-length, membrane-integrated (from UniProt P08050 1-382) (natural protein)",6,
"β1Cx32 (connexin 32), full-length, membrane-integrated (from UniProt P08033 1-283) (natural protein)",,6
